These results are taken from patent US20030162228A1 (Chugai, published 2003).

For assay [1], the target named is T1, TAK1 expressed from yeast 2-hybrid expression vector pBTMHu11F (Homo sapiens (Human), UniProt O43318 1-606).
T1 sequence: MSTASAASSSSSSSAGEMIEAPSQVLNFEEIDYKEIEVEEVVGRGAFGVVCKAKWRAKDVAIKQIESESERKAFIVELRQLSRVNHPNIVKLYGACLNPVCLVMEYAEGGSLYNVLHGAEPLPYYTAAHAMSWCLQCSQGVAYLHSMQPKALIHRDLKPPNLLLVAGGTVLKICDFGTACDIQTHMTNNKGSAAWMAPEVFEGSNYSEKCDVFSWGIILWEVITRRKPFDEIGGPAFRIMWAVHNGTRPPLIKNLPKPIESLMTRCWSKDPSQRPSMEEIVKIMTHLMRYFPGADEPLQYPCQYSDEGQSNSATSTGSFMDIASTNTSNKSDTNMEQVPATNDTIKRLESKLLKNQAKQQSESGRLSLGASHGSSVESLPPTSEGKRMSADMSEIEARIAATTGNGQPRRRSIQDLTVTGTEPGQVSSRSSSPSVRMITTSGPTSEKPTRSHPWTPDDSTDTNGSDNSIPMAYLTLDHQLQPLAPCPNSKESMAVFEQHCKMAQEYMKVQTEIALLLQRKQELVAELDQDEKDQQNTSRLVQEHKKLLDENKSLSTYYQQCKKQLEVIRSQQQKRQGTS
In words: cell-based or functional assay.

Assay [2] has as its target T1, TAK1 expressed from yeast 2-hybrid …. As to the kind of experiment: cell-based or functional assay. This is another data set of the same source.
Assay [3] deals with T2, TAB1 polypeptide of human fibroblast-derived HT-1080 cells (endogenous) (human, UniProt Q15750 1-504, limits assumed).
T2 sequence (looked up): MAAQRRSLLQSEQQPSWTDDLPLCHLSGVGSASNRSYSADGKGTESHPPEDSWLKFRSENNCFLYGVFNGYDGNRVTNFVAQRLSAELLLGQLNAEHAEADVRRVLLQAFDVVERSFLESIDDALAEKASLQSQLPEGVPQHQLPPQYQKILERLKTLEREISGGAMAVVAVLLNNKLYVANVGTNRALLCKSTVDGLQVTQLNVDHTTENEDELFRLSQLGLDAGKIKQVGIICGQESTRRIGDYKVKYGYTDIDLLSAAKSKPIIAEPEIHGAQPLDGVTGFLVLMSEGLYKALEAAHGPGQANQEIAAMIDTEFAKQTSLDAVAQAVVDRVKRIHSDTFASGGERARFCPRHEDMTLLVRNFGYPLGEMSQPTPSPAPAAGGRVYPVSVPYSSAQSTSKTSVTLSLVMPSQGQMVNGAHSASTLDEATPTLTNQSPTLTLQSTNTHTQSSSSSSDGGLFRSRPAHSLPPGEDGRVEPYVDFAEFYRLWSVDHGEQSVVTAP
In words: cell-based or functional assay.

For assay [4], the target named is T3, TAB1 polypeptide of mouse kidney mesangial cell line SV40MES13 (endogenous) (mouse, UniProt Q8CF89 1-502, limits assumed).
T3 sequence (looked up): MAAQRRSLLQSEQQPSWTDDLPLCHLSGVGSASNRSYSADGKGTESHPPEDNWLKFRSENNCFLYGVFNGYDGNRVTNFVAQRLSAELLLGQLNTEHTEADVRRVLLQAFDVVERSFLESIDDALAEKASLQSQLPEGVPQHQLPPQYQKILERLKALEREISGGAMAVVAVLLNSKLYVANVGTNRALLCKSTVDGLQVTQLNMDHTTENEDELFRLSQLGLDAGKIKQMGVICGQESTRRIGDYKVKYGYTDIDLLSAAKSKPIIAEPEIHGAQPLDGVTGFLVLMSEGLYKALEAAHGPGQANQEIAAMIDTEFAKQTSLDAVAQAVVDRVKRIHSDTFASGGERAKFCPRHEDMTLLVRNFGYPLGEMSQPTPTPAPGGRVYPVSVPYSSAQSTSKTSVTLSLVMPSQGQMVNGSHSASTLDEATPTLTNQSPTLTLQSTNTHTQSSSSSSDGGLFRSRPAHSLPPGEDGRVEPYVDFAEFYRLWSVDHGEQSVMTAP
In words: cell-based or functional assay.

In assay [5] the target is TAB1 polypeptide of mink pulmonary epithelial cell line Mv1Lu (endogenous) (mink). In words: cell-based or functional assay.
In assay [6] the target is T4, recombinant human TAK1-6×His polypeptide (human, UniProt O43318 1-606).
T4 construct: also called human TAK1-6xHis; recombinant TAK1 polypeptide
T4 sequence: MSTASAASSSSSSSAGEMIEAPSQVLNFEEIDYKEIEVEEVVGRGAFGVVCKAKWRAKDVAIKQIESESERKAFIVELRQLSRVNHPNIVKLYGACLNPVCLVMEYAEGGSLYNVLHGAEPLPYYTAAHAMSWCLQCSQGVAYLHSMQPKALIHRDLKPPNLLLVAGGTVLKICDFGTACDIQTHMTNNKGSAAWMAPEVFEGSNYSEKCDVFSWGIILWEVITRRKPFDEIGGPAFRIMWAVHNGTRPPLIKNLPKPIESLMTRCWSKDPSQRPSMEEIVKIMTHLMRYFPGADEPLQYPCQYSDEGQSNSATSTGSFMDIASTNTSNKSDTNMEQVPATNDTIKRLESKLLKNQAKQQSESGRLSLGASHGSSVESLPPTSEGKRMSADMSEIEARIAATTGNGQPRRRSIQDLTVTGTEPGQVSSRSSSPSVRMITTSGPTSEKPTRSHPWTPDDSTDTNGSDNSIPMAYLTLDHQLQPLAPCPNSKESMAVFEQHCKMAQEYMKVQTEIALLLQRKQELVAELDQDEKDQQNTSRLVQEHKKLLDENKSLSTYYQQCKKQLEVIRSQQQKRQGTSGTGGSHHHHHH
In words: competition ELISA on plate-immobilised TAK1-6×His; the blocked ligand is MBP-TAB1C-FLAG at a fixed amount.
Description: In a similar manner to that in the above 5-1 (2), the recombinant human TAK1-6×His polypeptide was immobilized and was blocked.

Assay [7] concerns the target T1, TAK1 expressed from yeast 2-hybrid …. As to the kind of experiment: cell-based or functional assay. This is another data set of the same source.

Like-named read-outs stand apart in the source and are kept apart here. Where no end group is shown, it is not given here.

For the molecule GLFRSRPAHSLPPGEDGRVEPYVDFAEFYRLWSVDHGEQSVVTAP (other, not shown: large carriers, also: fusion with GAL4 transcription activation domain) [TAB1C45, fusion with the GAL4 transcription activated domain (pGAD-TAB1C45)], the “ratio of the β-galactosidase activity to that of TAB1C68 (yeast 2-hybrid)” value was 1.31 in assay [1] and 1.19 in assay [2].

B1: TAK1-DN (expressed from pTAK1DN) (other)
chain: MELRQLSRVNHPNIVKLYGACLNPVCLVMEYAEGGSLYNVLHGAEPLPYYTAAHAMSWCLQCSQGVAYLHSMQPKALIHRDLKPPNLLLVAGGTVLKICDFGTACDIQTHMTNNKGSAAWMAPEVFEGSNYSEKCDVFSWGIILWEVITRRKPFDEIGGPAFRIMWAVHNGTRPPLIKNLPKPIESLMTRCWSKDPSQRPSMEEIVKIMTHLMRYFPGADEPLQYPCQ
For B1, in assay [3], the “fold increase of fibronectin in the culture supernatant on TGF-β addition, HT/DN2 cells (control HT/NEO about 6.1 fold)” value is ~2.6 fold; the “fold increase of fibronectin in the culture supernatant on TGF-β addition, HT/DN14 cells (control HT/NEO about 6.1 fold)” value is ~3 fold; the “fold increase of fibronectin in the extracellular matrix extract on TGF-β addition, HT/DN2 cells (control HT/NEO about 11.4 fold)” value was ~3.5 fold; the “fold increase of fibronectin in the extracellular matrix extract on TGF-β addition, HT/DN14 cells (control HT/NEO about 11.4 fold)” value is ~3.6 fold. In addition, in assay [4], the “fold increase of fibronectin in the culture supernatant on TGF-β addition, MES/DN3 cells (control MES/NEO about 3.3 fold)” value was ~2.4 fold; the “fold increase of fibronectin in the culture supernatant on TGF-β addition, MES/DN6 cells (control MES/NEO about 3.3 fold)” value is ~2.3 fold; the “fold increase of fibronectin in the extracellular matrix extract on TGF-β addition, MES/DN3 cells (control MES/NEO about 3.8 fold)” value is ~2.6 fold; the “fold increase of fibronectin in the extracellular matrix extract on TGF-β addition, MES/DN6 cells (control MES/NEO about 3.8 fold)” value is ~2.1 fold. Besides, in assay [4], the “fold increase of type I collagen in the culture supernatant on TGF-β addition, MES/DN3 cells (control MES/NEO about 3.6 fold)” value was ~2 fold; the “fold increase of type I collagen in the culture supernatant on TGF-β addition, MES/DN6 cells (control MES/NEO about 3.6 fold)” value is ~2 fold; the “fold increase of type IV collagen in the culture supernatant on TGF-β addition, MES/DN3 cells (control MES/NEO about 2.0 fold)” value was ~1.5 fold; the “fold increase of type IV collagen in the culture supernatant on TGF-β addition, MES/DN6 cells (control MES/NEO about 2.0 fold)” value was ~1.4 fold. The “fold increase of PAI-1 in the culture supernatant on TGF-β1 addition, Mv/DN2 cells (control cells about 16-fold)” value in assay [5] was ~4.3 fold.

B2: TAB1C68, fusion with the GAL4 transcription activated domain (pGAD-TAB1) (other, not shown: large carriers)
chain: QSPTLTLQSTNTHTQSSSSSSDGGLFRSRPAHSLPPGEDGRVEPYVDFAEFYRLWSVDHGEQSVVTAP
Take B2: the “ratio of the β-galactosidase activity to that of TAB1C68 (yeast 2-hybrid)” value in assay [1] and in assay [2] was 1 in each case.

B3: recombinant human TAB1-FLAG polypeptide (other)
chain: MAAQRRSLLQSEQQPSWTDDLPLCHLSGVGSASNRSYSADGKGTESHPPEDSWLKFRSENNCFLYGVFNGYDGNRVTNFVAQRLSAELLLGQLNAEHAEADVRRVLLQAFDVVERSFLESIDDALAEKASLQSQLPEGVPQHQLPPQYQKILERLKTLEREISGGAMAVVAVLLNNKLYVANVGTNRALLCKSTVDGLQVTQLNVDHTTENEDELFRLSQLGLDAGKIKQVGIICGQESTRRIGDYKVKYGYTDIDLLSAAKSKPIIAEPEIHGAQPLDGVTGFLVLMSEGLYKALEAAHGPGQANQEIAAMIDTEFAKQTSLDAVAQAVVDRVKRIHSDTFASGGERARFCPRHEDMTLLVRNFGYPLGEMSQPTPSPAPAAGGRVYPVSVPYSSAQSTSKTSVTLSLVMPSQGQMVNGAHSASTLDEATPTLTNQSPTLTLQSTNTHTQSSSSSSDGGLFRSRPAHSLPPGEDGRVEPYVDFAEFYRLWSVDHGEQSVVTAPGTGGSDYKDDDDK
notes: Made in Sf9 cells with baculovirus and purified on anti-FLAG M2 gel
Take B3: the “IC50 (read off the curve)” value in assay [6] was ~1 µg/well.

On to PYVDFAEFYRLWSVDHGEQSVVTAP (other, not shown: large carriers, also: fusion with GAL4 transcription activation domain) [TAB1C25, fusion with the GAL4 transcription activated domain (pGAD-TAB1C25)], for which, in assay [7], the “β-galactosidase activity of yeast L40 (yeast 2-hybrid), ratio based on TAB1C68” value is 0.28 ratio to TAB1C68.
